According to article doi:10.64898/2025.12.03.692134 (bioRxiv, 2025):

T1: Torpedo nicotinic acetylcholine receptor δ subunit (Tetronarce californica (Pacific …, UniProt P02718 22-522))
T1 sequence: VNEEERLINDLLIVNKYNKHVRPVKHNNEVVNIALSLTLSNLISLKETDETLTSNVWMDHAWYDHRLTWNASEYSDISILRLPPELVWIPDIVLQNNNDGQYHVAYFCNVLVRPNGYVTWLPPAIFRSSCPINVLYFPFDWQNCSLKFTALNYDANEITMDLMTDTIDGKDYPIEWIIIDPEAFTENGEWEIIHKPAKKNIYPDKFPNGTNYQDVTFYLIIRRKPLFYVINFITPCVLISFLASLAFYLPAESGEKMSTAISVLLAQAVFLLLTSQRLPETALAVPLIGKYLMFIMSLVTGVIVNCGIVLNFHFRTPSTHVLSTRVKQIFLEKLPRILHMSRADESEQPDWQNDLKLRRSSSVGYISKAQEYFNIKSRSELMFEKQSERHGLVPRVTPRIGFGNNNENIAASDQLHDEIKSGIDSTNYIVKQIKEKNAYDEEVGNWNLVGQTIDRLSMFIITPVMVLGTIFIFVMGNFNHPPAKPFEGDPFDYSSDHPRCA

B1: Torpedo nicotinic acetylcholine receptor β subunit (receptor)
chain: SVMEDTLLSVLFETYNPKVRPAQTVGDKVTVRVGLTLTNLLILNEKIEEMTTNVFLNLAWTDYRLQWDPAAYEGIKDLRIPSSDVWQPDIVLMNNNDGSFEITLHVNVLVQHTGAVSWQPSAIYRSSCTIKVMYFPFDWQNCTMVFKSYTYDTSEVTLQHALDAKGEREVKEIVINKDAFTENGQWSIEHKPSRKNWRSDDPSYEDVTFYLIIQRKPLFYIVYTIIPCILISILAILVFYLPPDAGEKMSLSISALLAVTVFLLLLADKVPETSLSVPIIIRYLMFIMILVAFSVILSVVVLNLHHRSPNTHTMPNWIRQIFIETLPPFLWIQRPVTTPSPDSKPTIISRANDEYFIRKPAGDFVCPVDNARVAVQPERLFSEMKWHLNGLTQPVTLPQDLKEAVEAIKYIAEQLESASEFDDLKKDWQYVAMVADRLFLYVFFVICSIGTFSIFLDASHNVPPDNPFA
B2: Torpedo nicotinic acetylcholine receptor α subunit (receptor)
chain: SEHETRLVANLLENYNKVIRPVEHHTHFVDITVGLQLIQLISVDEVNQIVETNVRLRQQWIDVRLRWNPADYGGIKKIRLPSDDVWLPDLVLYNNADGDFAIVHMTKLLLDYTGKIMWTPPAIFKSYCEIIVTHFPFDQQNCTMKLGIWTYDGTKVSISPESDRPDLSTFMESGEWVMKDYRGWKHWVYYTCCPDTPYLDITYHFIMQRIPLYFVVNVIIPCLLFSFLTGLVFYLPTDSGEKMTLSISVLLSLTVFLLVIVELIPSTSSAVPLIGKYMLFTMIFVISSIIITVVVINTHHRSPSTHTMPQWVRKIFIDTIPNVMFFSTMKRASKEKQENKIFADDIDISDISGKQVTGEVIFQTPLIKNPDVKSAIEGVKYIAEHMKSDEESSNAAEEWKYVAMVIDHILLCVFMLICIIGTVSVFAGRLIELSQEG

How the values were obtained:
[1] = biological target: T1, Torpedo nicotinic acetylcholine …; test: cryo-EM structure
[2] = biological target: B1; test: cryo-EM structure

Binder: B1
- binding result [1]: binds

Binder: B2
- binding result [2]: binds
